# From publication PMC9482650, “Quantitative fragmentomics allow affinity mapping of interactomes” (Nature Communications, 2022)
# Residue numbers refer to the chain shown, from its start.
# What was measured:
# Test in all cases: holdup assay
# Parameters in all cases: key: below the threshold = too weak to quantify, mostly under pKd 3.1 to 4
# SNTB1, Q13884 = target: T1, SNTB1, Q13884
# T1 sequence (Q13884 107-205, limits assumed, looked up): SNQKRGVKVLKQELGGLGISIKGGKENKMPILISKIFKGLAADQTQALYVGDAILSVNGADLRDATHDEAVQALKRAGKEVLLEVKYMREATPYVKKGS
# LIN7B, Q9HAP6 = target: T2, LIN7B, Q9HAP6
# T2 sequence (Q9HAP6 88-185, limits assumed, looked up): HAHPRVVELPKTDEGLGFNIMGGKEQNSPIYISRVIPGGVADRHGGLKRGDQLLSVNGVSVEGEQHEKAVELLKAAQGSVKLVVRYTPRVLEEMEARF
# GRIP1_5, Q9Y3R0 = target: T3, GRIP1_5, Q9Y3R0
# T3 sequence (Q9Y3R0 568-668, limits assumed, looked up): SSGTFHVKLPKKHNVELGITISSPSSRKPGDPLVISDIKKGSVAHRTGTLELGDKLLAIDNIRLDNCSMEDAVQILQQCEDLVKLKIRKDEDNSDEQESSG
# Inadl_1, Q8NI35 = target: Inadl_1, Q8NI35
# PDZRN4_1, Q6ZMN7 = target: PDZRN4_1, Q6ZMN7
# TJP2_1, Q9UDY2 = target: TJP2_1, Q9UDY2
# MAGI1_1, Q96QZ7 = target: MAGI1_1, Q96QZ7
# HTRA3, P83110 = target: T4, HTRA3, P83110
# T4 sequence (P83110 354-453, limits assumed, looked up): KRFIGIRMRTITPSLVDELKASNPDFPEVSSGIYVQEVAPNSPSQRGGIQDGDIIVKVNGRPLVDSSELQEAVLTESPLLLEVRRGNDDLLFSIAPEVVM
# GRID2IP_1, A4D2P6 = target: GRID2IP_1, A4D2P6
# LRRC7, Q96NW7 = target: T5, LRRC7, Q96NW7
# T5 sequence (Q96NW7 1440-1537, limits assumed, looked up): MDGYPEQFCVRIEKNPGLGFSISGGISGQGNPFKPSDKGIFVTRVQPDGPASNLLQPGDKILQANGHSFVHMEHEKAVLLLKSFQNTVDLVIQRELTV
# SNTG1, Q9NSN8 = target: T6, SNTG1, Q9NSN8
# T6 sequence (Q9NSN8 52-150, limits assumed, looked up): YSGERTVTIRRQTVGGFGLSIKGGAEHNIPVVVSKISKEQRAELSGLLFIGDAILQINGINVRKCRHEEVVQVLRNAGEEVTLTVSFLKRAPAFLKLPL
# ARHGAP21, Q5T5U3 = target: T7, ARHGAP21, Q5T5U3
# T7 sequence (Q5T5U3 45-169, limits assumed, looked up): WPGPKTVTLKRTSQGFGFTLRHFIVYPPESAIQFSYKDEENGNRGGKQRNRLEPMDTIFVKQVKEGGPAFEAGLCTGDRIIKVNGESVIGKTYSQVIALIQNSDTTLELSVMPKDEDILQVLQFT
# Inadl_9, Q8NI35 = target: Inadl_9, Q8NI35
# PICK1, Q9NRD5 = target: PICK1, Q9NRD5
# TIAM2, Q8IVF5 = target: T8, TIAM2, Q8IVF5
# T8 sequence (Q8IVF5 885-986, limits assumed, looked up): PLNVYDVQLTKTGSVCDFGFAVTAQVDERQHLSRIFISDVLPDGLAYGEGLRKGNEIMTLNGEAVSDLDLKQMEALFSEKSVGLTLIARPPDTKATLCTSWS
# CARD11, Q9BXL7 = target: T9, CARD11, Q9BXL7
# T9 sequence (Q9BXL7 662-765, limits assumed, looked up): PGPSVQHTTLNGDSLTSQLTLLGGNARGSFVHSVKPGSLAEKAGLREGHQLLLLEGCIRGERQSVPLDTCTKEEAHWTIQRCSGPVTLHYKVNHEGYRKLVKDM
# LNX2_3, Q8N448 = target: T10, LNX2_3, Q8N448
# T10 sequence (Q8N448 463-564, limits assumed, looked up): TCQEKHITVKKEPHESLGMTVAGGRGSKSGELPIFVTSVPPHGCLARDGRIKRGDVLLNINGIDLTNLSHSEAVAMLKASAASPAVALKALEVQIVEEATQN
# AHNAK1, Q09666 = target: AHNAK1, Q09666
# MPDZ_5, O75970 = target: T11, MPDZ_5, O75970
# T11 sequence (O75970 695-796, limits assumed, looked up): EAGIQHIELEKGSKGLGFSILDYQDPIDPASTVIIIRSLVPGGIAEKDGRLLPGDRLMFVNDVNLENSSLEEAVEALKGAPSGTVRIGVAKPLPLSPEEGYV
# LIN7A, O14910 = target: T12, LIN7A, O14910
# T12 sequence (O14910 103-200, limits assumed, looked up): T2 sequence (Q9HAP6 88-185, limits assumed, looked up) with A2S, I20V, V35I, D42E, Q65H, Q77K, G78D, R89K
# MAGI2_6, Q86UL8 = target: MAGI2_6, Q86UL8
# IL16_4, Q14005 = target: IL16_4, Q14005
# NHERF3_4, Q5T2W1 = target: T13, NHERF3_4, Q5T2W1
# T13 sequence (Q5T2W1 373-468, limits assumed, looked up): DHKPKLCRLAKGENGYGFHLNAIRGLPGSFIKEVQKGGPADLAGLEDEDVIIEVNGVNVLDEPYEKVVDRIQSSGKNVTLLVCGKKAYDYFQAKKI
# GRASP, Q7Z6J2 = target: GRASP, Q7Z6J2
# [1] = plain residues with an end cap or a label only (N-terminal biotin on a linker: gsgsgs; C-terminal amide)
# [2] = plain residues with an end cap or a label only (N-terminal biotin on a linker: ado-ado)
# [3] = plain residues with an end cap or a label only (N-terminal biotin on a linker: ttds)
# Sequence of MAGI2_6, Q86UL8 (Q86UL8 1141-1229): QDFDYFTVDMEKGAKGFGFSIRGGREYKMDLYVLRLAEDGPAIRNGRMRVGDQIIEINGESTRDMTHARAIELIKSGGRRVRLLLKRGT
# Sequence of MAGI1_1, Q96QZ7 (Q96QZ7 1-106): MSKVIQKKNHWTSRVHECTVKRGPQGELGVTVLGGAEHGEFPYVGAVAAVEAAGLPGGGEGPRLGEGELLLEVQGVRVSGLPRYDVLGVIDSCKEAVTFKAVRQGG
# Sequence of Inadl_9, Q8NI35 (Q8NI35 1530-1615): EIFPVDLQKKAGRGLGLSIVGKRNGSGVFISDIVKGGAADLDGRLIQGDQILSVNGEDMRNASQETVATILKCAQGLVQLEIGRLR
# Sequence of PICK1, Q9NRD5 (Q9NRD5 17-115): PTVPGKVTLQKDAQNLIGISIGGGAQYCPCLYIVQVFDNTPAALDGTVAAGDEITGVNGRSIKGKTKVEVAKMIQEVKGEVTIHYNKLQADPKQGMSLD
# Sequence of GRASP, Q7Z6J2 (Q7Z6J2 96-193): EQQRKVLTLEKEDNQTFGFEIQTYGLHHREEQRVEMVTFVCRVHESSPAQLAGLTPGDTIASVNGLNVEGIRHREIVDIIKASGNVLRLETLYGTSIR
# Sequence of AHNAK1, Q09666 (Q09666 4-100): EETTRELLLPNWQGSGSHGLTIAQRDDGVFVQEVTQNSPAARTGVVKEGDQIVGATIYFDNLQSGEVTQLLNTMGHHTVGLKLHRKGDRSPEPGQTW
# Sequence of TJP2_1, Q9UDY2 (Q9UDY2 24-128): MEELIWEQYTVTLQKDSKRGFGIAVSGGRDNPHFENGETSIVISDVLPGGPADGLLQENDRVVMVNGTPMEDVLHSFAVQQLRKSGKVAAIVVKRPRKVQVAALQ
# Sequence of Inadl_1, Q8NI35 (Q8NI35 113-229): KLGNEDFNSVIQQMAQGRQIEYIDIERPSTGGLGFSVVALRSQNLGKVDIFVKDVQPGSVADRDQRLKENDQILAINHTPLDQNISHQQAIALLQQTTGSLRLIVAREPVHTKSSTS
# Sequence of GRID2IP_1, A4D2P6 (A4D2P6 1-87): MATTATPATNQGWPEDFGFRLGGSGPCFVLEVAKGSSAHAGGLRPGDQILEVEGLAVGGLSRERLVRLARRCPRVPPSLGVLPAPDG
# Sequence of IL16_4, Q14005 (Q14005 1229-1329): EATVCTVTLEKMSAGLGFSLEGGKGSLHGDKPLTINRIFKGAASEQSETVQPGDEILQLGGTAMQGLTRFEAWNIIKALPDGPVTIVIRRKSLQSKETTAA
# Sequence of PDZRN4_1, Q6ZMN7 (Q6ZMN7 213-318): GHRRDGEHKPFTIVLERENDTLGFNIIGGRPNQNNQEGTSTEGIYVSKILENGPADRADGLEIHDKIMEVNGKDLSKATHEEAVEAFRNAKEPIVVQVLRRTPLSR
binder,measurement,setting,value
"ELIQDTSTSFSTTREW [ARAP3_int, Q8WWN8]",pKd,"SNTB1, Q13884; [1]",below the threshold
same,pKd,"LIN7B, Q9HAP6; [1]",3.67
same,pKd,"GRIP1_5, Q9Y3R0; [1]",below the threshold
same,pKd,"Inadl_1, Q8NI35; [1]",below the threshold
same,pKd,"PDZRN4_1, Q6ZMN7; [1]",below the threshold
same,pKd,"TJP2_1, Q9UDY2; [1]",below the threshold
same,pKd,"MAGI1_1, Q96QZ7; [1]",below the threshold
same,pKd,"HTRA3, P83110; [1]",below the threshold
same,pKd,"GRID2IP_1, A4D2P6; [1]",below the threshold
same,pKd,"LRRC7, Q96NW7; [1]",below the threshold
same,pKd,"SNTG1, Q9NSN8; [1]",below the threshold
same,pKd,"ARHGAP21, Q5T5U3; [1]",below the threshold
same,pKd,"Inadl_9, Q8NI35; [1]",below the threshold
same,pKd,"PICK1, Q9NRD5; [1]",below the threshold
same,pKd,"TIAM2, Q8IVF5; [1]",3.97
same,pKd,"CARD11, Q9BXL7; [1]",below the threshold
same,pKd,"LNX2_3, Q8N448; [1]",below the threshold
same,pKd,"AHNAK1, Q09666; [1]",below the threshold
same,pKd,"MPDZ_5, O75970; [1]",below the threshold
same,pKd,"LIN7A, O14910; [1]",below the threshold
same,pKd,"MAGI2_6, Q86UL8; [1]",below the threshold
same,pKd,"IL16_4, Q14005; [1]",below the threshold
same,pKd,"NHERF3_4, Q5T2W1; [1]",below the threshold
same,pKd,"GRASP, Q7Z6J2; [1]",below the threshold
"EEPEERHTEL [CES2, O00748]",pKd,"SNTB1, Q13884; [2]",4.92
same,pKd,"LIN7B, Q9HAP6; [2]",3.89
same,pKd,"GRIP1_5, Q9Y3R0; [2]",below the threshold
same,pKd,"Inadl_1, Q8NI35; [2]",below the threshold
same,pKd,"PDZRN4_1, Q6ZMN7; [2]",4.13
same,pKd,"TJP2_1, Q9UDY2; [2]",below the threshold
same,pKd,"MAGI1_1, Q96QZ7; [2]",3.5
same,pKd,"HTRA3, P83110; [2]",below the threshold
same,pKd,"GRID2IP_1, A4D2P6; [2]",below the threshold
same,pKd,"LRRC7, Q96NW7; [2]",3.61
same,pKd,"SNTG1, Q9NSN8; [2]",3.59
same,pKd,"ARHGAP21, Q5T5U3; [2]",below the threshold
same,pKd,"Inadl_9, Q8NI35; [2]",below the threshold
same,pKd,"PICK1, Q9NRD5; [2]",below the threshold
same,pKd,"TIAM2, Q8IVF5; [2]",4.07
same,pKd,"CARD11, Q9BXL7; [2]",below the threshold
same,pKd,"LNX2_3, Q8N448; [2]",below the threshold
same,pKd,"AHNAK1, Q09666; [2]",below the threshold
same,pKd,"MPDZ_5, O75970; [2]",below the threshold
same,pKd,"LIN7A, O14910; [2]",below the threshold
same,pKd,"MAGI2_6, Q86UL8; [2]",4.27
same,pKd,"IL16_4, Q14005; [2]",below the threshold
same,pKd,"NHERF3_4, Q5T2W1; [2]",4.48
same,pKd,"GRASP, Q7Z6J2; [2]",4.62
"RTRQRNETQV [HPV51-E6, P26554]",pKd,"SNTB1, Q13884; [3]",4.09
same,pKd,"LIN7B, Q9HAP6; [3]",below the threshold
same,pKd,"GRIP1_5, Q9Y3R0; [3]",below the threshold
same,pKd,"Inadl_1, Q8NI35; [3]",below the threshold
same,pKd,"PDZRN4_1, Q6ZMN7; [3]",4.16
same,pKd,"TJP2_1, Q9UDY2; [3]",below the threshold
same,pKd,"MAGI1_1, Q96QZ7; [3]",below the threshold
same,pKd,"HTRA3, P83110; [3]",below the threshold
same,pKd,"GRID2IP_1, A4D2P6; [3]",below the threshold
same,pKd,"LRRC7, Q96NW7; [3]",below the threshold
same,pKd,"SNTG1, Q9NSN8; [3]",3.98
same,pKd,"ARHGAP21, Q5T5U3; [3]",below the threshold
same,pKd,"Inadl_9, Q8NI35; [3]",below the threshold
same,pKd,"PICK1, Q9NRD5; [3]",below the threshold
same,pKd,"TIAM2, Q8IVF5; [3]",below the threshold
same,pKd,"CARD11, Q9BXL7; [3]",below the threshold
same,pKd,"LNX2_3, Q8N448; [3]",below the threshold
same,pKd,"AHNAK1, Q09666; [3]",below the threshold
same,pKd,"MPDZ_5, O75970; [3]",below the threshold
same,pKd,"LIN7A, O14910; [3]",below the threshold
same,pKd,"MAGI2_6, Q86UL8; [3]",below the threshold
same,pKd,"IL16_4, Q14005; [3]",below the threshold
same,pKd,"NHERF3_4, Q5T2W1; [3]",below the threshold
same,pKd,"GRASP, Q7Z6J2; [3]",below the threshold
